Test results as given in the supplement of paper PMC10567573.

B1: NCF4 (parent)
chain: FGPDSKSSALACTLPTLPAKVYVG

Variants of: B1
Assay: protein stability index of a GFP-peptide fusion (GPS, HEK-293T) (PSI 1-6); higher = more stable
Details: c terminus: a fixed tail appended
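Further: lentivirally expressed fusions sorted by FACS into six bins by GFP to DsRed ratio, PSI derived from sequencing read proportions per bin multiplied by bin number.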

Protein stability index, by site and new letter:
A9: D 3.18, K 1.89, S 2.23, M 1.9, R 2.29, L 1.11, Y 1.5, V 2.25, P 1.57, N 2.49, E 3.67, C 1.74, I 1.86, H 2.23, T 2.44, G 1.67, Q 2.46, W 2.52
P18: D 2.71, C 1.52, R 1.61, F 2.02, W 2.77, V 1.55, E 2.23, M 1.75, G 2.12, L 1.65, I 3.81, T 2.03, H 2.26, Y 2.42, A 2.98, K 2.15, S 1.65, N 2.24, Q 2.02
S7: K 2.35, V 1.73, T 2.37, W 1.97, Y 1.06, A 1.9, L 2.07, I 1.56, P 1.97, N 2.23, G 2.37, E 2.72, C 1.69, Q 3.06, F 2.9, R 2.35, M 2.25, H 1.57, D 2.9
A19: C 1.74, D 2.6
D4: L 2.15, S 2.04, I 2.15, T 2.14, K 2.48, G 2.1, E 2.05, Y 1.8, N 1.84, W 1.18, M 2.19, H 1.18, A 1.82, V 1.75, F 1.58, R 2.1, Q 2.26, P 2.23, C 2.11
G2: T 2.06, S 2.34, E 3.43, H 1.61, F 3.06, D 3.1, A 2.57, P 2.59, Y 2.22, N 1.77, C 1.12, I 1.96, R 2.6, Q 1.49, K 3.02, L 2.06, V 3.38, W 1.65, M 1.84
L17: S 2.16, I 1.88, K 2.54, N 2.27, Q 3.03, T 2.43, A 2.39, W 1.88, C 2.14, H 2.09, P 2.6, R 2.2, D 2.76, V 2.29, Y 1.54, M 2.24, G 2.59, E 2.64, F 2
K6: P 2.33, F 1.53, L 1.63, Y 1.43, N 2.8, S 2.41, E 2.54, G 2.48, I 1.95, R 1.76, V 2.07, W 3.06, T 2.78, H 2.29, M 2.89, A 1.95, Q 2.45, D 3.17, C 2.02
P3: C 2.04, S 2.35, A 2.45, N 2.21, R 2.35, Y 1.73, T 2.25, Q 3.09, M 2.01, K 2.56, H 2.46, D 2.19, V 1.86, F 1.72, E 3.02, I 2.13, W 1.46, L 2.17, G 2.07
T13: Y 1.86, C 1.96, V 1.79, M 2.15, Q 2.19, R 2.33, E 2.7, A 2.28, L 1.83, S 2.44, G 1.85, F 2.39, P 1.88, K 2.46, H 1.85, N 2.9, D 2.81, W 3.59, I 2.18
C12: V 2.19, N 2.77, E 3.13, Y 1.88, S 2.87, M 2.77, H 3.16, L 2.33, G 2.41, Q 2.36, R 2.5, I 2.3, A 2.87, F 1.7, D 2.95, W 1.88, K 2.95, T 2.76
P15: A 1.5, M 1.86, C 2.19, G 1.61, K 1.86, Y 2.87, Q 1.89, W 3.34, R 1.61, I 3.1, S 1.95, H 1.67, F 3.49, E 2.29, T 1.59, V 1.99, L 1.8, D 1.53, N 1.85
L10: C 2.69, T 3.57, Q 2.95, R 3.23, D 3.99, H 2.88, G 2.93, Y 1.86, I 2.12, P 3.58, M 2.69, S 2.64, F 2.15, N 3.73, E 3.65, K 3.29, V 2.88, A 2.99
F1: K 3.17, Q 3.02, P 3.32, W 2.63, T 3.47, M 2.68, S 3.64, E 4.28, I 2.64, N 3.69, L 2.99, V 2.92, R 2.54, H 3.84, G 3.58, D 3.56, Y 2.7
S5: A 2.34, Q 3.47, K 2.28, E 3.13, D 3.16, N 2.65, I 2.41, T 2.32, Y 1.51, H 2.36, P 2.75, R 2.2, L 2.12, C 1.8, M 1.89, V 2.46
A11: M 2.86, H 2.23, T 2.51, D 2.99, S 2.45, Q 3, L 2.18, Y 1.46, P 2.17, I 2.24, K 2.29, R 1.58, E 2.63, V 1.76, N 2.78, F 2.4, G 2.22, C 2.35
L14: C 1.77, R 2.32, K 2.55, H 2.19, I 2.15, E 2.76, D 2.84, T 2.54, M 2.77, V 2.11, Q 2.25, N 2.32, G 2.66, A 2.68, Y 1.86, F 2.25, S 2.86, W 1.51
T16: M 1.76, F 2.38, D 2.45, G 1.88, K 2.33, C 2.02, V 2.08, Y 2.45, H 2.2, R 1.97, P 2.05, S 2.41, Q 2.2, E 2.4, N 2.06, A 2, W 3.26, I 1.66, L 1.73
S8: Q 2.29, W 2.65, R 3.19, A 2.32, E 3.36, L 1.98, V 2.22, G 2.77, N 2.32, I 2.44, M 2.08, H 1.67, P 2.22, T 1.89, Y 4.4, C 2.44, D 2.7, K 1.85, F 2.86
